Results on 1 substance are retold here after US20250257116A1.

The target of assay [1] is CD16-WT (Homo sapiens (Human)) (UniProt P08637). In words: cell-based or functional assay.
For assay [2], the target named is CD16-F176V-V196_S197insP-V197_T198insP (Homo sapiens (Human)) (UniProt P08637). In words: cell-based or functional assay.

Take “metalloproteinase 17 (ADAM17) (from UniProt P78536 215-824) (enzyme)”: the decrease of CD16 expression on iNK cells after adding Raji cells and Rituximab in assay [1] turned out to be 40%; in assay [2], 9%.
